# Assay results published in US20230066984A1, “New Carbon Glycoside Glycosyltransferase and Use Thereof” (CAS Center for Excellence in Molecular Plant Sciences, priority 2020, published 2023).
# Numbering of substitutions follows the chain as printed.
# B1: Phyllostachys edulis (moso bamboo) C-glycosyltransferase PhCGT1, SEQ ID NO: 1 (Phyllostachys edulis) (protein)
# chain: MPTSGGRTGDRPHVILLPSAGMGHLVPFSRLAVALSSGHGCDVSVVAVLPTVSAAESRHLQGLLDASPAVRRLDLHLAPFDESEFPGADPFFLRFEAMRRSAPLLGPLLADTGASALVTDIALASVVIPVAKEIHLPCYVLFTASAAMLSFCAYFPTYLDTNAGRVVGDVDIPGVYRIPKASIPQALHDPNHLFTRQFVANGQDLAKADGVLVNTFDALELEAVTALRQGSVAAGFPPVFSVGPLVTVNLPAGEAAKESGNDYMYWLDAQPAQSVVYVSFGSRKAISRDQVRELAIGLEASGQPFLWVVKSTVVDRDDSAELSELLGEGFLERVQGQGFVTKAWVEQEEVLKHESIGLFISHCGWNSVTEAAASGVPVLAWPRFGDQRVNAGVVARGGLGVWVERWSWEGEEDVVSGEEIAEKVKAVMADETVRKKAASVGEAAVKEFADGGTSYRSLTEFVRRCRDLAVLD
# notes: pET28a (pCZ86), E. coli BL21(DE3) in fermentation; A1 assay uses crude enzyme supernatant
# B2: Phyllostachys glauca (henon bamboo) C-glycosyltransferase PgCGT1, SEQ ID NO: 2 (Phyllostachys glauca) (protein)
# chain: B1 chain with G6S, D10G, Q273R, D289N, I296V, P304R, G327D, Q337R, F339L, D413G
# notes: A1 assay uses crude enzyme supernatant
# B3: TaCGT1-B: C-glycosyltransferase from wheat, SEQ ID NO: 9 (protein, listed as Triticum aestivum)
# chain: MPTSGDGSGALPHVVLLPSAGMGHLVPFSRLAVSFSSSDHGCGVSVVTVLPTVSSAESAHLDALFGACPAVRRLDFHLARFDASEFPGADPFFLRFEAMRRSAPLLGPLLAGAGASALVTDIALASVVIPVARELRLPCYVLFTASAAMLSLCVHFPAYLDANAGGPVGDVDIPGVYRVPKASIPQALHHPEHLFTRQFVANGRELAKSDGLLVNSFDEFEPEAISALRDGSVAAGFPPVFSVGPLAPVSFSAGEPPENQADYMRWLEAQPTRSVVYVSFGSRKAISKDQLKELAVGLEASGHRFLWVVKSTVVDREDEAELSELLGEGFLERVHGRGMVTKGWVEQEEVLKQESIGLFISHCGWNSVTEAAANGLPVLAWPRFGDQRVNAGVVARSGLGVWEERWSWEGEEGVVSGENIAEKVKAVMADETVRNKAVSVQDAAAKAVADGGTSYRSLAQFVQRCRDLSVSK
# Assays:
# [1] = substrate: O=C1C[C@@](O)(c2ccc(O)cc2)Oc2cc(O)cc(O)c21; assay: in vitro kinetic parameters of C-glycosyltransferase PhCGT1 with 2-hydroxynaringenin (FIG. 5); type: biochemical; settings: other: PhCGT1; substrate 2-hydroxynaringenin; 37.0 °C
# Method: (§1) The in vitro enzyme catalytic assay system is 100 μL. The reaction system includes: 0.1 mM glycosyl receptor (phloretin or 2-hydroxynaringenin), 0.3 mM UDP glucose, 25 μL supernatant crude enzyme solution, and Buffer A is used to make up the volume to 100 μL, and react at 37° C. for 2 h. After the reaction was completed, an equal volume of methanol was added to terminate the reaction, and HPLC was used for product analysis. HPLC detection conditions: chromatographic column: reverse phase C18 column [SilGreen ODS column (ø 4.6×250 mm)], detection wavelength 280 nm; mobile phase: acetonitrile (0.1% formic acid)-water (0.1% formic acid) mixture gradient elution, with increased ratio from 5:95 to 100:0 within 0 to 20 min, and the flow rate was 1 mL/min.
# (§2) The Km value is the substrate concentration when the enzymatic reaction presents half of its maximum reaction rate, and the lower the Km value, the higher the enzymatic activity of the C-glycosyltransferase.
# [2] = In vitro functional identification of C-glycosyltransferases by HPLC, phloretin as glycosyl receptor; type: biochemical; settings: 0.1 mM phloretin, 0.3 mM UDP glucose, crude enzyme, 37° C., 2 h, HPLC (FIG. 1A)
# Method: The recombinant plasmid was transformed into competent cells of Escherichia coli BL21 (DE3), and cultured overnight at 37° C. in solid LB medium (kanamycin 50 μg/mL). Single colony was transferred to a 2 mL LB liquid medium (containing 50 μg/ml kanamycin) and incubated overnight. The bacterial fluid was transferred to a new 100 ml LB liquid medium with antibiotics and incubated at 37° C. and 250 r/min until OD600 reached 0.5-0.6. The culture was cooled down to 16° C. in a water bath. Then inducer IPTG was added at a final concentration of 0.1 mM. The mixture was cultured at 16° C. for low temperature induction and 180 r/min for 20 h. The BL21(DE3) recombinant strain carrying the pET28a empty plasmid was used as a blank control, and the culture operation was the same as above. The bacteria were harvested by centrifugation (6000 r/min, 5 min), re-suspended in 1 mL of lysis buffer Buffer A (20 mM Tris-HCl, pH 8.0; 100 mM NaCl), and DNase was added to a final concentration of 5 μg/mL, Mg^2+ to a final concentration of 2 mM; protease inhibitor PMSF to a final concentration of 1 mM; the bacteria were incubated on ice for 30 min and then sonicated; refrigerated centrifugation (10,000 rpm, 30 min, 4° C.), filtered through a 0.2 µm filter membrane to obtain the supernatant crude enzyme solution, and added 20% glycerol for cryopreservation (−20° C.).
# as §1
# [3] = substrate: O=C1C[C@@](O)(c2ccc(O)cc2)Oc2cc(O)cc(O)c21; assay: in vitro kinetic parameters of C-glycosyltransferase PgCGT1 with 2-hydroxynaringenin (FIG. 5); type: biochemical, henon bamboo (Phyllostachys glauca); settings: other: PgCGT1; substrate 2-hydroxynaringenin; 37.0 °C
# Method: as §1, §2
molecule,measurement,setting,value
B1,Km,[1],1.75 ± 0.66 µM
same,conversion of substrate phloretin to C-glycosylated product (Nothofagin),[2],can convert the substrate phloretin to a product having a shorter retention time
B2,Km,[3],2.75 ± 0.75 µM
same,conversion of substrate phloretin to C-glycosylated product (Nothofagin),[2],can convert the substrate phloretin to a product having a shorter retention time
B3,conversion of substrate phloretin to C-glycosylated product (Nothofagin),[2],can convert the substrate phloretin to a product having a shorter retention time
